According to the supplement of paper PMC10724198:
± gives the standard deviation of the averaged measurements.

test system: Saccharomyces cerevisiae; assay: protein stability index of tFT-peptide fusion (C-terminal peptide) (PSI (0-1 scale)); higher = more stable (slower turnover); conditions: genetic background: wild type; temperature: 30 C
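Note: PSI is a weighted mean of sequencing reads over stability bins, variants kept only with over 10 reads, mCherry proximal and sfGFP distal, peptide attached via GGGS linker.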

Sequence	protein stability index
LSPAAPTHAYAA	0.72 ± 0.1
LSPALSFVLTIW	0.497 ± 0.011
LSPFGTLLNAPP	0.782 ± 0.075
LSPGQVLPWGVL	0.643 ± 0.069
LSPLPPPAGHLP	0.646 ± 0.096
LSPPPLSPPSHP	0.723 ± 0.0092
LSQFQEPPFYLF	0.708 ± 0.044
LSQISTQRPNQV	0.694 ± 0.06
LSRHSRSILPSL	0.726 ± 0.056
LSRSTSYILIII	0.515 ± 0.039
LSRWGKTKGKKW	0.62 ± 0.014
LSSARPLAGVHT	0.675 ± 0.03
LSSCPPPALRLP	0.715 ± 0.013
LSSGSCLESPFT	0.732 ± 0.08
LSSLYSSLTFFL	0.651 ± 0.014
LSSNSTTSATYR	0.722 ± 0.016
LSSSVIFALPLP	0.767 ± 0.034
LSSTGFDLWSLL	0.769 ± 0.067
LSTAWFYFSLLF	0.635 ± 0.072
LTCRGESYAGLI	0.651 ± 0.014
LTFWLGSLGLWG	0.72 ± 0.019
LTHLPSLCVRRI	0.647 ± 0.06
LTHTVLVGSALN	0.647 ± 0.024

Sequence	protein stability index
LTIEFSARLGNA	0.663 ± 0.03
LTLPLFPPPCSV	0.648 ± 0.018
LTPEPPRPPTPY	0.699 ± 0.033
LTPSVRDKRPPI	0.759 ± 0.055
LTPTLLTNPQAD	0.678 ± 0.022
LTRFQPTPCLPP	0.691 ± 0.0074
LTVVGGVVGKVG	0.689 ± 0.037
LVAAEARIGFAV	0.7 ± 0.012
LVCLLFTNKVMH	0.599 ± 0.011
LVEARQGAFLVV	0.692 ± 0.029
LVEEGKKLTSKF	0.711 ± 0.078
LVGALISHSILR	0.629 ± 0.019
LVGRVGAVAGPA	0.691 ± 0.028
LVHGWERPSRVR	0.661 ± 0.021
LVIGTTLSSLML	0.742 ± 0.066
LVLDVLDLRRHC	0.649 ± 0.012
LVLLDQISVPLI	0.6474 ± 0.00096
LVLLFGIGTTHW	0.65 ± 0.049
LVLRLLRGFLPK	0.681 ± 0.014
LVNVIPSHERAT	0.656 ± 0.037
LVPSPLIFPSLG	0.783 ± 0.012
LVRCPLGVPGAS	0.7085 ± 0.0065
LVSGFRYPFSCL	0.611 ± 0.037

Sequence	protein stability index
LVSLVGVGWGCG	0.729 ± 0.023
LVVGNQFIRRSD	0.685 ± 0.023
LVVPNFPLSFSV	0.732 ± 0.055
LVVSLGLFLLRH	0.549 ± 0.045
LVWFQYFRLWGG	0.61 ± 0.029
LWENVVLVEGGK	0.704 ± 0.069
LWGEGAGPEDVG	0.674 ± 0.011
LWGGAGAGYWVG	0.727 ± 0.033
LWGVGWPLLGGL	0.691 ± 0.04
LWISDSGSLYFS	0.739 ± 0.018
LWKLLNTVKNAA	0.62 ± 0.01
LWLDKSREGSLG	0.701 ± 0.021
LWLSAPDRREPF	0.684 ± 0.041
LWRRPASSLLPI	0.701 ± 0.018
LWSDPGQILVEL	0.717 ± 0.015
LYPGYIVVANYK	0.661 ± 0.032
LYPNPPLLPCSP	0.612 ± 0.046
LYQEPLRNACFC	0.683 ± 0.1
LYRRGTYFEGLI	0.704 ± 0.012
LYSGLASEIWYT	0.737 ± 0.045
LYSPSLRPPLLL	0.855 ± 0.18
LYSRSSRLFRPL	0.804 ± 0.042
LYSTATLSLCSR	0.707 ± 0.12

Sequence	protein stability index
LYTNLIGFNSWI	0.713 ± 0.037
LYVTYVPYTYAT	0.665 ± 0.012
MALAVRVVGCGA	0.594 ± 0.014
MDKIKKNYSQIG	0.693 ± 0.036
MEAAGVGRVVWR	0.632 ± 0.056
MEGNQTSVRGRT	0.677 ± 0.083
MESGKILGCCGI	0.684 ± 0.012
MGGDATSLKRLV	0.703 ± 0.0091
MGGRDNLVQKEW	0.804 ± 0.091
MGYNSRHLDISM	0.677 ± 0.018
MIKAPGHKGTIN	0.684 ± 0.02
MITRPASKYLVK	0.6221 ± 0.0052
MIVSILRSRSFS	0.557 ± 0.0066
MKNKSTEKNRKF	0.72815 ± 0.00016
MKPPRGRIVITG	0.626 ± 0.02
MLGRLLDRCYDY	0.678 ± 0.029
MLHLNPVLHISG	0.653 ± 0.041
MLLLWRVPQCGE	0.638 ± 0.055
MLMFSASAVWGG	0.556 ± 0.048
MLPPRRAPFPPP	0.735 ± 0.018
MLYENNTAPLFI	0.635 ± 0.045
MPCPFSSASRAI	0.668 ± 0.036
MPENGSTKSWWK	0.696 ± 0.082

Sequence	protein stability index
MPGSLPVSRVLL	0.74 ± 0.087
MQLWECKQSLCD	0.696 ± 0.017
MQQWSTKSPGVI	0.651 ± 0.027
MREAQAFRCLYG	0.636 ± 0.0019
MSFFPCVFSGFG	0.738 ± 0.033
MSGRGPYPYSPL	0.7465 ± 0.0034
MSKTIEREGNMI	0.735 ± 0.034
MSPSVFLPPLPL	0.662 ± 0.09
MSRRSVFGAVFW	0.663 ± 0.039
MSSTLCMLPFSV	0.771 ± 0.012
MTKNKFLTGSRL	0.845 ± 0.22
MTYSVWENVLTW	0.733 ± 0.032
MVDGFLRFDTKM	0.704 ± 0.13
MVELWQPASVFS	0.663 ± 0.033
MVGASFAILGFI	0.699 ± 0.014
MWAEWLCHGDRN	0.742 ± 0.068
NAKGRKQTGKRK	0.695 ± 0.035
NAYRYFLNKQNR	0.697 ± 0.012
NCFIPPARVFPS	0.686 ± 0.028
NCFVTILLGMWK	0.513 ± 0.022
NCKLAVSPRPLR	0.692 ± 0.051
NELSPSQDLPSS	0.671 ± 0.095
NERTETVHQGTP	0.691 ± 0.045

Sequence	protein stability index
NFCSSGLPLLII	0.648 ± 0.022
NFLPSAARTRTP	0.6758 ± 0.0023
NFPVLLSISALL	0.548 ± 0.072
NGGERQDGGKHR	0.648 ± 0.034
NGKGARSGETRT	0.647 ± 0.057
NGTGGVEGPQTL	0.659 ± 0.025
NHTLPGTRSSVW	0.684 ± 0.09
NIIADTHARRRF	0.748 ± 0.11
NIKEKRNKKKRR	0.677 ± 0.073
NINITQNVKNIK	0.716 ± 0.06
NIPESSVSKLSK	0.678 ± 0.026
NIRYRQKEKKND	0.573 ± 0.031
NKDGIKKKKYNK	0.668 ± 0.032
NKFLRSVVRKHE	0.671 ± 0.011
NKFNTINQNREV	0.678 ± 0.04
NKHDGRKWARYK	0.6494 ± 0.00069
NKKETRKQKTKK	0.673 ± 0.017
NKKGMSIWANER	0.68915 ± 0.0002
NKKIYRTKIKKL	0.5917 ± 0.00069
NKKKKHTQYKRK	0.694 ± 0.0077
NKKQTKKKRKNK	0.731 ± 0.037
NKLYDESLALYP	0.704 ± 0.044
NKNGGDLCLGSS	0.652 ± 0.049

Sequence	protein stability index
NKTIVNNVKIRY	0.574 ± 0.0065
NKVRDKTQLKIE	0.78 ± 0.094
NLCRLGHTAGVL	0.753 ± 0.086
NLKLIRSEYNLN	0.658 ± 0.042
NLRKGHSDERVV	0.691 ± 0.071
NLRSIYKLGRLT	0.549 ± 0.011
NLRVANLAQRTE	0.703 ± 0.05
NLSLPSPPLTTN	0.731 ± 0.0082
NMIKNNKWDINR	0.7 ± 0.074
NMYQQIESEYSK	0.676 ± 0.045
NNEKIEQRYSMK	0.711 ± 0.019
NNRIRNIISIRK	0.743 ± 0.04
NPFCPILPFALL	0.853 ± 0.069
NPLDRQNCTCGE	0.656 ± 0.13
NPLKAGFLVVTT	0.6508 ± 0.0032
NPPPSPALLSRP	0.809 ± 0.06
NPSSKVIALWKI	0.556 ± 0.046
NPTPPNLRSNLF	0.6877 ± 0.0055
NPVFPPPPHSQL	0.75 ± 0.18
NPWTHVPGRQNH	0.731 ± 0.054
NQPPFPLRRPPT	0.699 ± 0.048
NRCGGACGRQAG	0.711 ± 0.027
